B1: library; numbered along this chain (parent)
chain: MEVVDPQQLGMFTEGELMSVGMDTFIHRIDSTEVIYQPRRKRAKLIGKYLMGDLLGEGSYGKVKEVLDSETLCRRAVKILKKKKLRRIPNGEANVKKEIQLLRRLRHKNVIQLVDVLYNEEKQKMYMVMEYCVCGMQEMLDSVPEKRFPVCQAHGYFCQLIDGLEYLHSQGIVHKDIKPGNLLLTTGGTLKISDLGVAEALHPFAADDTCRTSQGSPAFQPPEIANGLDTFSGFKVDIWSAGVTLYNITTGLYPFEGDNIYKLFENIGKGSYAIPGDCGPPLSDLLKGMLEYEPAKRFSIRQIRQHSWFRKKHPPAEAPVPIPPSPDTKDRWRSMTVVPYLEDLHGADEDEDLFDIEDDIIYTQDFTVPGQVPEEEASHNGQRRGLPKAVCMNGTEAAQLSTKSRAEGRAPNPARKACSASSKIRRLSACKQQ

Variants of: B1
Experiment: STK11 functional score (HeLa growth suppression), rescaled enrichment; synonymous median = 1, nonsense median = 0 (normalised score)
Settings: with HeLa; variant type: missense
Procedure, shortened: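 Functional scores are post/pre-selection log ratios corrected to wild type, rescaled to synonymous and nonsense medians, merged over codons and replicate transfections, and given bootstrapped error. They come from POPCode libraries of codon-optimised STK11 integrated by Bxb1 at an AAVS1 landing pad in HeLa, three regions each transfected three times, with BFP-negative, mCherry-positive integrants sorted by FACS and tiled gDNA amplicons sequenced on NextSeq.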

STK11 functional score of substitutions, site by site:
K388: A 1.17 | V 1.3 | R 1.54 | Q 1.21 | G 1.31 | D 1.31 | L 0.826 | M 1.39 | S 1.19 | T 1.42 | F 1.24 | Y 1.07 | P 0.884 | W 1.5 | E 1.42 | H 1.12 | I 0.996 | N 1.53
G385: V 0.433 | M 1.59 | L 0.869 | T 1.58 | S 1.51 | H 1.56 | E 1.41 | W 1.28 | R 1.13 | A 1.46 | K 1.6 | F 1.36 | Q 1.57 | P 1.26 | N 1.59 | I 1.45 | D 1.3
Q399: V 0.994 | F 1.27 | I 1.05 | R 0.852 | P 1.35 | E 1.47 | A 1.11 | C 1.23 | H 1.13 | W 1.43 | G 1.51 | N 1.39 | S 0.903 | D 1.39 | K 0.826 | M 0.653 | T 1.29 | L 1.31 | Y 1.42
A398: T 1.3 | N 1.15 | S 1.16 | V 1.01 | L 1.16 | F 1.12 | M 1.63 | K 1.53 | W 0.886 | Y 1.23 | G 1.1 | R 1.42 | I 1.13 | D 1.18 | C 1.35 | Q 1.58 | E 1.55
T402: W 1.44 | D 1.21 | S 1.31 | M 1.23 | N 0.935 | L 1.23 | A 1.42 | F 1.18 | I 1.25 | K 1.3 | H 0.157 | E 1.59 | G 1.13 | Y 1.43 | P 1.54 | V 0.686 | C 1.33
L386: F 0.706 | H 0.959 | S 1.45 | T 1.6 | I 1.14 | W 1.13 | N 0.528 | V 1.06 | G 1.19 | E 1.55 | A 1.6 | R 1.43 | Q 1.37 | C 1.31 | P 0.743
N393: G 1.36 | Y 1.51 | K 0.96 | D 1.07 | C 1.54 | A 1.59 | H 1.51 | P 1.59 | F 1.52 | T 1.48 | V 0.689 | R 1.07 | M 1.48 | L 1.16 | E 1.48 | I 1.39 | S 1.09
E396: M 1.47 | W 1.49 | R 1.53 | Y 1.23 | Q 1.18 | N 1.49 | G 1.55 | F 1.41 | A 1.29 | T 1.08 | I 1.57 | H 1.55 | S 1.18 | L 1.14 | V 1.55 | C 1.26 | D 1.45
A397: L 1.27 | P 1.18 | M 1.62 | Y 1.38 | N 0.679 | H 1.64 | G 1.14 | C 1.04 | F 1.35 | K 0.947 | V 0.799 | S 1.26 | W 0.847 | T 1.51 | E 1.44 | I 1.51 | R 1.46 | D 1.32
A389: P 1.3 | I 1.59 | L 1.54 | Q 1.18 | C 1.51 | D 1.2 | V 0.744 | E 1.52 | H 1.51 | G 1.46 | F 1.33 | S 1.38 | Y 1.15 | R 1.56 | W 1.04 | T 1.25 | K 1.61
K403: A 1.6 | N 1.42 | R 1.03 | H 1.53 | L 1.25 | M 0.00927 | F 1.2 | I 1.04 | D 1.53 | Q 1.61 | G 1.46 | C 0.656
L400: H 1.42 | Y 1.55 | Q 1.27 | F 1.46 | D 1.19 | I 1.55 | R 1.37 | V 1.41 | E 1.58 | G 1.48 | N 1.63 | A 1.64 | T 1.11 | K 0.775 | W 1.56 | S 1.07
G394: N 0.969 | C 1.28 | V 1.29 | Q 1.35 | H 1.6 | S 1.46 | E 1.26 | F 1.17 | R 1.17 | D 1.32 | Y 1.38 | K 1.6 | L 1.59 | I 1.51 | A 1.32 | P 1.52 | W 1.29 | M 1.62
C391: S 0.743 | E 1.58 | F 0.922 | A 1.51 | W 0.764 | G 1.22 | V 0.834 | L 1.54 | R 1.6 | M 1.62 | T 0.912 | N 0.483 | H 1.46 | I 1.07
M392: Y 1.04 | A 1.56 | F 1.17 | I 1.42 | V 1.51 | N 0.559 | R 0.973 | C 1.34 | S 1.52 | L 1.57 | D 1.19 | W 0.68 | P 1.63 | G 1.43
R384: C 1.14 | A 1.33 | P 1.56 | L 1.43 | S 1.53 | H 1.47 | F 1.55 | T 1.15 | Q 1.62 | E 1.53 | G 1.28 | D 1.2 | V 1.22 | Y 1.53 | I 1.06 | M 1.36 | W 1.35 | N 1.54
S401: D 1.19 | H 1.49 | W 0.786 | N 1.4 | A 1.54 | F 1.49 | M 1.44 | T 0.884 | K 1.44 | V 1.41 | L 1.51 | P 1.07 | I 1.49 | G 0.991 | R 1.11 | E 1.24 | C 1.05
T395: V 1.04 | P 1.32 | S 0.942 | M 1.05 | G 1.49 | I 0.971 | C 1.61 | F 0.847 | Y 1.47 | R 1.58 | D 1.56 | Q 1.5 | N 1.4 | E 1.33 | K 0.547 | L 1.23 | W 1.61 | H 1.53 | A 0.877
V390: Q 1.63 | E 1.44 | H 0.912 | G 1.39 | Y 1.41 | A 1.51 | R 1.4 | F 1.18 | P 1.52 | W 0.447 | C 1.06 | L 1.22 | S 1.5 | D 1.4 | T 1.59
P387: S 1.41 | V 1.13 | A 1.32 | H 1.45 | R 1.47 | C 1.54 | W 1.62 | T 1.56 | N 1.63 | D 1.56 | E 1.6 | Q 1.37 | Y 0.935 | K 1 | I 1.54 | M 1.44 | F 1.14 | G 1.58 | L 1.02

From the supplement of paper PMC12338614
